# Test results: patent EP3574020B1
# Changes are numbered by the printed parent chain. Names and notes keep the numbering of the source.
# T1: cyclo(CGHHQKG) cyclic peptide, conjugated to BSA
# T1 sequence (peptide, cyclized peptide, cyclo(CGHHQKG); conjugated to BSA): CGHHQKG
# T2: linear CGHHQKG peptide, conjugated to BSA
# T2 sequence (peptide, conjugated to BSA): CGHHQKG
# B1: 301-11 mouse monoclonal antibody (IgG3, kappa) (antibody, V domains shown)
# VH: EVQLVESGGGLVKPGGSLKLSCAASGFTFSDYYMYWVRQTPEKRLEWVATISDGGSYTSYPDSVKGRFTISRDNAKNNLYLQMSSLRSEDTAMYYCARDYYGSSSYTSGFAYWGQGTLVTVSA
# VL: DIVMSQSPSSLAVSTGEKVTMSCKSSQSLLNSRTRKNYLAWYQQKPGQSPKLLIYWASTRESGVPDRFTGSGSGTDFTLTISSVQAEDLAVYYCKQSYNLYTFGGGTKLEIK
# B2: 301-17 mouse monoclonal antibody, hybridoma-purified IgG3 (antibody, V domains shown)
# VH: QVQLQQPGAELVKPGASVKMSCKASGYSFTSYWINWVKQRPGQGLEWIGDVHPGRGVSTYNAKFKSKATLTLDTSSSTAYMQLSSLTSEDSAVYYCSRSHGNTYWFFDVWGAGTTVTVSSATTTAPS
# VL: DVLMTQTPLSLPVSLGDQASISCRSSQSIVHSNGNTYLEWYLQKPGQSPKLLIYKVSNRFSGVPDRFSGSGSGTDFTLKISRVEAEDLGVYYCFQGSHVPFTFGSGTKLEIKRADA
# B3: Recombinant 301-17 IgG1 (murine IgG1 backbone) (antibody, V domains shown)
# VH: QVQLQQPGAELVKPGASVKMSCKASGYSFTSYWINWVKQRPGQGLEWIGDVHPGRGVSTYNAKFKSKATLTLDTSSSTAYMQLSSLTSEDSAVYYCSRSHGNTYWFFDVWGAGTTVTVSS
# VL: DVLMTQTPLSLPVSLGDQASISCRSSQSIVHSNGNTYLEWYLQKPGQSPKLLIYKVSNRFSGVPDRFSGSGSGTDFTLKISRVEAEDLGVYYCFQGSHVPFTFGSGTKLEIKR
# B4: Humanized antibody of 301-17 (VH2 Vk5), human IgG4 (S241P hinge variant) / kappa (antibody, V domains shown)
# VH: B3 VH with Q5V, P7S, L11V, V12K, K67R, S76I, Q82E, T87R, S91T, A112Q
# VL: B3 VL with T7S, S14T, D17Q, Q18P, L42Q, K44R, K50R, L88V, S105Q
# Legend:
# A-beta42 Monomer (human) [1] = experiment: SPR; purified antibody immobilized, A-beta injected
# Sequence of A-beta42 Monomer (human) (peptide, as listed by the source): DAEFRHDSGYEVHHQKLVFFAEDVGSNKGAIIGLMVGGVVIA
# [2] = biological target: A-beta42 Oligomer (synthetic) (human); experiment: as above
# Sequence of A-beta42 Oligomer (synthetic) (human) (peptide, as listed by the source): as above
# A-beta42 Monomer (human) [3] = experiment: SPR direct binding; hybridoma supernatant over immobilized A-beta42 monomer
# [4] = biological target: A-beta42 Oligomer (synthetic) (human); experiment: SPR direct binding; hybridoma supernatant over immobilized A-beta42 oligomer
# [5] = biological target: commercially-prepared stable A-beta42 Oligomers (SynAging) (human); experiment: SPR; antibody covalently immobilized, stable A-beta42 oligomers at 1 microM
# Sequence of commercially-prepared stable A-beta42 Oligomers (SynAging) (human) (peptide, as listed by the source): as above
# [6] = biological target: T1, cyclo(CGHHQKG) cyclic peptide, conjugated to BSA; experiment: SPR direct binding; hybridoma supernatant over immobilized BSA-conjugated peptide
# [7] = biological target: T2, linear CGHHQKG peptide, conjugated to BSA; experiment: as above
# [8] = biological target: T1, cyclo(CGHHQKG) cyclic peptide, conjugated to BSA; experiment: MAAS-2 SPR; antibody immobilized, cyclopeptide-BSA at pH 6.5, 7.5 or 8.0
# [9] = biological target: A-beta oligomers in the low molecular weight (LMW, ~8-70 kDa) fraction of soluble human AD brain extract (human) (UniProt P05067); experiment: SPR; antibody immobilized, SEC fraction at 100ug/ml
# Sequence of A-beta oligomers in the low molecular weight (LMW, ~8-70 kDa) fraction of soluble human AD brain extract (human) (P05067 672-713): as the sequence (peptide, as listed by the source) above
binder,measurement,setting,value
B1,RU,A-beta42 Monomer (human) [1],-14.1 RU
same,RU,[2],-2.8 RU
same,RU,A-beta42 Monomer (human) [3],21.6 RU
same,RU,[4],75.3 RU
same,"binding response units (BRU), average",[5],19.3 BRU
same,RU,[6],488 RU
same,RU,[7],210 RU
B2,RU,[2],148 RU
B3,BRU,[8],400 BRU
B4,fold binding response against aducanumab,[9],1.5 to 2 fold
